Experimental data as given in article PMC6077249, “Insights into Centromere DNA Bending Revealed by the Cryo-EM Structure of the Core Centromere Binding Factor 3 with Ndc10”.

What was measured:
Cep3ΔN = Cep3ΔN (Saccharomyces cerevisiae, UniProt P40969 47-608); assay: EMSA; DNA 1.6 uM; EMSA: 25 mM HEPES pH 8.0, 200 mM KCl, 2 mM DTT, 10% glycerol, 0.02% NP-40, 10 mM MgCl2, 10 uM ZnCl2; room temperature 45 min; native PAGE at 4 C; conditions: protein: recombinant; tags: N-terminal His; chain copies: 2; label: fluorescent label, singly or doubly labeled
Sequence of Cep3ΔN (P40969 47-608, stated change not applied): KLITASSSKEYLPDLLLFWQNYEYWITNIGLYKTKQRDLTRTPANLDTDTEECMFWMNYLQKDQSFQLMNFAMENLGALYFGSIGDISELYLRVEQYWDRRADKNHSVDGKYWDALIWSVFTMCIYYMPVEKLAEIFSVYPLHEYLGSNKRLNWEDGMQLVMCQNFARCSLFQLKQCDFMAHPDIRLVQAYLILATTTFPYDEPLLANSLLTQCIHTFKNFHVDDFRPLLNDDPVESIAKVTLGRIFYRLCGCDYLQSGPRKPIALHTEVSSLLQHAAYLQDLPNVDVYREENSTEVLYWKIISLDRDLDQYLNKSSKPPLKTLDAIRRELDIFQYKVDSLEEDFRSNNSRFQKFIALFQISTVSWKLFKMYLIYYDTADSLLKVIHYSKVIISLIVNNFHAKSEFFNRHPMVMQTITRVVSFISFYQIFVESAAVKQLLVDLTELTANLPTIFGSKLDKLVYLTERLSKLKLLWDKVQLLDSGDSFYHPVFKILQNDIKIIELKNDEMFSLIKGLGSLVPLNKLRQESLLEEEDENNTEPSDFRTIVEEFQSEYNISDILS

Ctf13;Skp1;Cep3ΔN [1] = target: T1, Ctf13;Skp1;Cep3ΔN (Saccharomyces cerevisiae;Saccharomyces …, UniProt P35203;P52286;P40969 1-478;1-194;47-608, ||); assay: as above; conditions: protein: recombinant;recombinant;recombinant; tags: C-terminal CBP;;N-terminal His; copies: 1;1;2; label: fluorescent label, singly or doubly labeled
T1 sequence (P35203 whole entry, stated change not applied, chain 1 of 3): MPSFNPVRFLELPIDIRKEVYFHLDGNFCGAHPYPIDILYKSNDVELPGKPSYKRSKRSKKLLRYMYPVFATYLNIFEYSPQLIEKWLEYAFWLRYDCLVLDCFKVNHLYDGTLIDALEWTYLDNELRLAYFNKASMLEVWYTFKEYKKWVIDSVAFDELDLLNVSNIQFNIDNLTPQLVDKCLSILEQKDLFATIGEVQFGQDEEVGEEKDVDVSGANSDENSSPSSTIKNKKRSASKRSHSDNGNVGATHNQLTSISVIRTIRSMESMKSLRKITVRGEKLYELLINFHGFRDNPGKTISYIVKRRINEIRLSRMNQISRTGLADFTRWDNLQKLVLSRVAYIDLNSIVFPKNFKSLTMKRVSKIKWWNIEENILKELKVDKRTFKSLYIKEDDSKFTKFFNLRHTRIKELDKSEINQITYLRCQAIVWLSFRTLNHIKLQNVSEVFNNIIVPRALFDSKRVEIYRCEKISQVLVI
T1 sequence (P52286 whole entry, stated change not applied, chain 2 of 3): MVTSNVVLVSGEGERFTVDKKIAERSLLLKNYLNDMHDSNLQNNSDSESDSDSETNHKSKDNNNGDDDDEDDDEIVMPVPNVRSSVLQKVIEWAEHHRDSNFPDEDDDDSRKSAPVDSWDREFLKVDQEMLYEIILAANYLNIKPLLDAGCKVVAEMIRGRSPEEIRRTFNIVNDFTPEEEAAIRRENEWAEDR
T1 sequence (P40969 47-608, stated change not applied, chain 3 of 3): as the sequence (P40969 47-608, stated change not applied) above

Cep3 full length = Cep3 full length (Saccharomyces cerevisiae, UniProt P40969 1-608); assay: EMSA; DNA 1.6 uM, protein 6.4 uM; binds tightly; EMSA: 25 mM HEPES pH 8.0, 200 mM KCl, 2 mM DTT, 10% glycerol, 0.02% NP-40, 10 mM MgCl2, 10 uM ZnCl2; room temperature 45 min; native PAGE at 4 C; conditions: protein: recombinant; tags: N-terminal His; chain copies: 2; label: fluorescent label, singly or doubly labeled
Sequence of Cep3 full length (P40969 whole entry): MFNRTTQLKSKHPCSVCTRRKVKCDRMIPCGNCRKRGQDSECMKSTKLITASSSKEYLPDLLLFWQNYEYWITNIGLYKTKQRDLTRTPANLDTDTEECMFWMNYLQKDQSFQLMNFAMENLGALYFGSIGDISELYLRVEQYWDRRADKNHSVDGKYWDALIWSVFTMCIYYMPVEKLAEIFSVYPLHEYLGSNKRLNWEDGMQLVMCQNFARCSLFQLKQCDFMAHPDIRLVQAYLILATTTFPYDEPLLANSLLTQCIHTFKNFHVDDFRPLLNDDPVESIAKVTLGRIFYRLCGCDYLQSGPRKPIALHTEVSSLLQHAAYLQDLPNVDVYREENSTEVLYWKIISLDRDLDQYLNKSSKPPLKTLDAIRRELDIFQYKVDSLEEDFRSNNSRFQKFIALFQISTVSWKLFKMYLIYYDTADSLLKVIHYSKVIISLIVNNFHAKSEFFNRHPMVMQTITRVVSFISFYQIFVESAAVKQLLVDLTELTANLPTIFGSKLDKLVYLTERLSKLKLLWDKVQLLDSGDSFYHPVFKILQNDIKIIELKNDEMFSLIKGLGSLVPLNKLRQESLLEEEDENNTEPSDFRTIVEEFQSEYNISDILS

Ctf13;Skp1;Cep3ΔN [2] = target: T1, Ctf13;Skp1;Cep3ΔN; assay: competition; 80 uM unlabeled competitor, 50x; competes labeled CDEIII; EMSA: 25 mM HEPES pH 8.0, 200 mM KCl, 2 mM DTT, 10% glycerol, 0.02% NP-40, 10 mM MgCl2, 10 uM ZnCl2; room temperature 45 min; native PAGE at 4 C; conditions: protein: recombinant;recombinant;recombinant; tags: C-terminal CBP;;N-terminal His; copies: 1;1;2

| Binder | binding result (Cep3ΔN) | binding result (Ctf13;Skp1;Cep3ΔN [1]) | binding result (Cep3 full length) | binding result (Ctf13;Skp1;Cep3ΔN [2]) |
| --- | --- | --- | --- | --- |
| CDEIII labeled (dsDNA) DNA 1: AATATTAGTGTATTTGATTTCCGAAAGTTAAA DNA 2: TTTAACTTTCGGAAATCAAATACACTAATATT | no binding | binds | binds |  |
| CDEIII unlabeled competitor (dsDNA) DNA 1: AATATTAGTGTATTTGATTTCCGAAAGTTAAA DNA 2: TTTAACTTTCGGAAATCAAATACACTAATATT |  |  |  | binds |
